Test results taken from publication PMC2849673 (Biochemistry, 2010).

Target: the molecule itself
Test: crystal structure

B1: E-2-(acetamidomethylene)succinate (E-2AMS) hydrolase (enzyme, Mesorhizobium loti MAFF303099, UniProt Q988D4 1-278, looked up)
chain: MDMAADIASDHFISRRVDIGRITLNVREKGSGPLMLFFHGITSNSAVFEPLMIRLSDRFTTIAVDQRGHGLSDKPETGYEANDYADDIAGLIRTLARGHAILVGHSLGARNSVTAAAKYPDLVRSVVAIDFTPYIETEALDALEARVNAGSQLFEDIKAVEAYLAGRYPNIPADAIRIRAESGYQPVDGGLRPLASSAAMAQTARGLRSDLVPAYRDVTKPVLIVRGESSKLVSAAALAKTSRLRPDLPVVVVPGADHYVNEVSPEITLKAITNFIDA
In the case of B1, the “stoichiometry N” value is reported as 2.
